Data as given in patent US20070031418A1 (published 2007).

Legend:
[1] = biological target: trkC receptor in stable trkC expressing CHO cells; experiment: cell-based or functional assay
[2] = biological target: trkC receptor of embryonic rat trigeminal neurons (rat) (UniProt Q03351); experiment: cell-based or functional assay
human trkC = biological target: T1, human trkC (human, UniProt Q16288 32-429, limits assumed); experiment: BIAcore analysis (SPR); format not stated
T1 construct: also called htrkC

trkC receptor of embryonic rat trigeminal neurons (rat), sequence (Q03351 32-864): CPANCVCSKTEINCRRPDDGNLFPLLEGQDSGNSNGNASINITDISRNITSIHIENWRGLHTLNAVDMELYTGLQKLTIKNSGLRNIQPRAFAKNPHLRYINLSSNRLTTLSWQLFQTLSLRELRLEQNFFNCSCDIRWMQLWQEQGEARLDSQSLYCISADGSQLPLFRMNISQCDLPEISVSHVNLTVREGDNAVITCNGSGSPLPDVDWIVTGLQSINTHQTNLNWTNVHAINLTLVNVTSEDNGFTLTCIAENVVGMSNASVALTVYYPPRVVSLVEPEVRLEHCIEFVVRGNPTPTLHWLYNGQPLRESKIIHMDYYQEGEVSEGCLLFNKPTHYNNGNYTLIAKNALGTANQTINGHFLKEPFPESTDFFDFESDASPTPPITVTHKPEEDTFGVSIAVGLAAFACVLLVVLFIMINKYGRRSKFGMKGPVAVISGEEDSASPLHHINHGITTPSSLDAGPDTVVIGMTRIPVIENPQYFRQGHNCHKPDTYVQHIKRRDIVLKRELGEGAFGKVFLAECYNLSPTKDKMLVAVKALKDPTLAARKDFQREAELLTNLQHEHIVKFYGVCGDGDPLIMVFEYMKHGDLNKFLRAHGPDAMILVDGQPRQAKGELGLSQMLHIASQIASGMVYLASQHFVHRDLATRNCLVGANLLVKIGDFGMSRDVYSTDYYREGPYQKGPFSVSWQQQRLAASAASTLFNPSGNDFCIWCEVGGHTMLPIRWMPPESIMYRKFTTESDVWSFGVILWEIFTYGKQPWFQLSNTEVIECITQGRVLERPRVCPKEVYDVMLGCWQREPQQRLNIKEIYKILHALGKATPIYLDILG

trkC tyrosine phosphorylation, half maximum effective concentration (EC50) [1] [pM]	Kd (human trkC) [pM]	Molecule	survival of embryonic rat trigeminal neuron cultures, EC50 [2] [pM]
1090	–	NT3 (ligand)	0.73
–	~280	humanized anti-trkC agonist antibody A5 (antibody, V domains shown) VH: QVQLVQSGAEVKKPGASVKVSCKASGYTFTSYRIHWVRQAPGQGLEWMGEIYPSNARTNYNEKFKSRVTMTRDTSTSTVYMELSSLRSEDTAVYYCARKYYYGNTRRSWYFDVWGQGTTVTVS VL: DIQMTQSPSSLSASVGDRVTITCRASESIDNYGISFLAWYQQKPGKAPKLLIYAASNRGSGVPSRFSGSGSGTDFTFTISSLQPEDIATYYCQQSKTVPRTFGQGTKLEIKR	–
